The target of assay [1] is two chain urokinase-type plasminogen activator (uPA). The assay can be described thus: SDS-PAGE of the protease-serpin complex.
For assay [2], the target named is human urokinase-type plasminogen activator receptor (uPAR) expressed in mouse LB6 clone 19 cells (human) (UniProt Q03405). The assay can be described thus: radioligand binding.

Experimental findings from publication PMC2120674 are described below.

UniProt Q03405, sequence (Q03405 23-305): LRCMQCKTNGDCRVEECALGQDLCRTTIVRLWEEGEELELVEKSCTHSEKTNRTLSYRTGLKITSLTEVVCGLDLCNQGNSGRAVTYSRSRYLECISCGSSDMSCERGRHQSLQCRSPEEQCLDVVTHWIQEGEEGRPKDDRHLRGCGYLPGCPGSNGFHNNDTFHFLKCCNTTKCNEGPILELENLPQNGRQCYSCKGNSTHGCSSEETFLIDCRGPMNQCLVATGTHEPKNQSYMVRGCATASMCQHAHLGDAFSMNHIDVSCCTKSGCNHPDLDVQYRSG

With “plasminogen activator inhibitor type-1 (PAI-1), recombinant active (from UniProt P05121 24-402) (natural protein)”, the percent of uPA converted to the complex form in assay [1] was over 90%.

Consider “uPA-PAI-1 complex (urokinase with plasminogen activator inhibitor type-1) (from UniProt P05121 24-402)”, for which, in assay [2], the bound radioactivity at 4C (with cycloheximide) was found to be 19.4 fmol/well and the bound radioactivity at 4C (without cycloheximide) is 18.7 fmol/well.
